Experimental data from WO2018038096A1.

Columns and labels:
[1] = target: HA of Perth/16 (H3N2) virus (influenza A virus A/Perth/16/2009 (H3N2)); assay: cell-based or functional assay
[2] = target: HA of A/California/04/2009 (H1N1pdm09) (influenza A virus A/California/04/2009 (H1N1pdm09)); assay: cell-based or functional assay
[3] = target: HA of A/California/04/2009 (H1N1pdm09) (influenza A virus A/California/04/2009 (H1N1pdm09))
[4] = target: three viruses, CA04, Egypt, and Anhui/1; assay: cell-based or functional assay
[5] = target: recombinant HA protein of A/Netherland/219/2003 (H7N7) (influenza A virus A/Netherland/219/2003 (H7N7))
[6] = target: recombinant HA protein of A/California/07/2009 (H1N1pdm09) (influenza A virus A/California/07/2009 (H1N1pdm09))
[7] = target: recombinant HA protein of A/Perth/16/2009 (H3N2) (influenza A virus A/Perth/16/2009 (H3N2))
[8] = target: recombinant HA protein of Egypt (H5N1 type) (influenza A virus, 'Egypt' (H5N1))

Molecule	IC 50, neutralization test 1 (Pre), CPE on MDCK cells [1]	IC 50, neutralization test 1 (Pre), CPE on MDCK cells [2]	apparent rate constant k obs, fold over that of S9-1-10/5-1 [3]	IC 50, neutralization test 2 (Post), CPE on MDCK cells [4]	Kd [5]	Kd [6]	Kd [7]	Kd [8]
CR9114 (antibody)	25 µg/mL	7.4 µg/mL	11.6 fold					
S9-1-10/5-1 (antibody, V domains shown) VH: QLHLQESGPGLLKPSATLSLTCTVSGGSMNNYYWSWVRQAPGKGLEWIGYIFHSGSTNYSPPLKSRVTISIDTATNQFFLRLNSVTAADTAVYYCARMSRGVFSSSRFFGLDVWGRGTAVAVSS VL: EIVLTQSPATLSVSPGERATLSCRASQSVASNLAWYQQKPGQAPRLLISAASTRATDIPARFSGSGSGTEFTLTISSLQSEDFAVYYCQQYNNWLSFTFGPGTKVDMKG				0.55 to 8.8 µg/mL	0.9 nM	0.0085 nM	34 nM	0.14 nM
